{"source": "paper PMC2119678", "about": "(The Journal of Cell Biology, 1993)", "binders": {"B1": {"name": "transgelin (natural protein)", "chain": "MANKGPSYGMSREVQSKIEKKYDEELEERLVEWIVVQCGPDVGRPDRGRLGFQVWLKNGVILSKLVNSLYPDGSKPVKVPENPPSMVFKQMEQVAQFLKAAEDYGVTKTDMFQTVDLFEGKDLAAVQRTLMALGSLAVTKNDGHYRGDPNWFMKKAQEHKREFTESQLQEGKHVIGLQMGSNRGASQLAGHSILPRLPHTQPCSSFSPGQASRLRH"}}, "biological_target": "actin from rabbit skeletal muscle (F actin) (rabbit, UniProt P68135 1-377)", "experiment": "co-sedimentation", "data": [{"binder": "B1", "values": [{"measurement": "stoichiometry N", "result": "6 actin monomers per transgelin"}]}]}
